B1: YFL010C_1 (protein, UniProt P43582 1-211, looked up)
WW domain-containing protein …: MAQSKSNPPQVPSGWKAVFDDEYQTWYYVDLSTNSSQWEPPRGTTWPRPKGPPPGVNNEKSSRQQADQAPPPYSSQSTPQVQAGAQAQQPRYYQPQQPQYPQYPQQQRYYPQQAPMPAAAPQQAYYGTAPSTSKGSGHGGAMMGGLLGVGAGLLGGAMLEHAFDDHNYDGPDTVVVENNYYGDDAGGSDGGFDDAGGFDGGFDDGFDGSDF
B2: YFR024C-A_1 (protein, UniProt P43603 1-459, looked up)
LAS seventeen-binding protein …: MGINNPIPRSLKSETKKAAKILASFVKPNQVFGADQVIPPDVLKRAKGLAIITILKAGFLFSGRAGSGVIVARLKDGTWSAPSAIAMAGAGAGGMVGIELTDFVFILNTQDAVKSFSEFGTITLGGNVSVSAGPLGRSAEAAASASAGGVAAVFAYSKSKGLFAGVSVEGSAIIERREANRKFYGDNCTAKMILSGRIRPPPAVDPLFRVLESRAFNYRPSNGGRGSFDDDEDDYYDDDDYYNDIPSSFSSTDASSTRPNTRSTRRRAQSGSRYTFDDDDDDDDYGTGYSRNSRLAPTNSGGSGGKLDDPSGASSYYASHRRSGTAQSRARSSRNRWADDEYDDYDDDYESGYRRGNGRDRTKDREVDDLSNRFSKSRISSASTPQTSQGRFTAPTSPSTSSPKAVALYSFAGEESGDLPFRKGDVITILKKSDSQNDWWTGRVNGREGIFPANYVELV
B3: YGR229C_1 (protein, UniProt P32566 1-505, looked up)
Cell wall assembly regulator …: MDLFKRKVKEWVYSLSTDDHYAEYNPDETPTFNMGKRLNSNNGQVNPSQMHLNSVDEEMSMGFQNGVPSNEDINIDEFTSTESNDGVSETLLAWRHIDFWTSEHNPDLNATLSDPCTQNDITHAEEDLEVSFPNPVKASFKIHDGQEDLESMTGTSGLFYGFQLMTLDQVVAMTQAWRNVAKNLNKRSQQGLSHVTSTGSSSSMERLNGNKFKLPNIPDQKSIPPNAVQPVYAHPAWIPLITDNAGNHIGVDLAPGPNGKYAQIITFGRDFDTKFVIAENWGEFLLSFANDLEAGNWYLVDDNDDYFSGDGELVFRDKKSNGPIQDYFEVLKRRTWIKYQENLRSQQQKSQPDTSLQEQKYVPASQKKVAAEQPSTLNAESIKGEDSGSADVQSVQDHESVKIVKTEPSEAETTTVNTESLGQAEHEIKADNVDIKQESERKEDEKQPKVEEKEHVENEHVTESAKKDDDVNKQTEEMNKKEENEIRSDDAKVEEAREEFENIAL
B4: YKL117W_1 (protein, UniProt P28707 2-216, looked up)
Co-chaperone protein SBA1: SDKVINPQVAWAQRSSTTDPERNYVLITVSIADCDAPELTIKPSYIELKAQSKPHVGDENVHHYQLHIDLYKEIIPEKTMHKVANGQHYFLKLYKKDLESEYWPRLTKEKVKYPYIKTDFDKWVDEDEQDEVEAEGNDAAQGMDFSQMMGGAGGAGGAGGMDFSQMMGGAGGAGSPDMAQLQQLLAQSGGNLDMGDFKENDEEDEEEEIEPEVKA
B5: YGR281W_1 (protein, UniProt P53049 1-1477, looked up)
Oligomycin resistance …: MTITVGDAVSETELENKSQNVVLSPKASASSDISTDVDKDTSSSWDDKSLLPTGEYIVDRNKPQTYLNSDDIEKVTESDIFPQKRLFSFLHSKKIPEVPQTDDERKIYPLFHTNIISNMFFWWVLPILRVGYKRTIQPNDLFKMDPRMSIETLYDDFEKNMIYYFEKTRKKYRKRHPEATEEEVMENAKLPKHTVLRALLFTFKKQYFMSIVFAILANCTSGFNPMITKRLIEFVEEKAIFHSMHVNKGIGYAIGACLMMFVNGLTFNHFFHTSQLTGVQAKSILTKAAMKKMFNASNYARHCFPNGKVTSFVTTDLARIEFALSFQPFLAGFPAILAICIVLLIVNLGPIALVGIGIFFGGFFISLFAFKLILGFRIAANIFTDARVTMMREVLNNIKMIKYYTWEDAYEKNIQDIRTKEISKVRKMQLSRNFLIAMAMSLPSIASLVTFLAMYKVNKGGRQPGNIFASLSLFQVLSLQMFFLPIAIGTGIDMIIGLGRLQSLLEAPEDDPNQMIEMKPSPGFDPKLALKMTHCSFEWEDYELNDAIEEAKGEAKDEGKKNKKKRKDTWGKPSASTNKAKRLDNMLKDRDGPEDLEKTSFRGFKDLNFDIKKGEFIMITGPIGTGKSSLLNAMAGSMRKTDGKVEVNGDLLMCGYPWIQNASVRDNIIFGSPFNKEKYDEVVRVCSLKADLDILPAGDMTEIGERGITLSGGQKARINLARSVYKKKDIYLFDDVLSAVDSRVGKHIMDECLTGMLANKTRILATHQLSLIERASRVIVLGTDGQVDIGTVDELKARNQTLINLLQFSSQNSEKEDEEQEAVVAGELGQLKYESEVKELTELKKKATEMSQTANSGKIVADGHTSSKEERAVNSISLKIYREYIKAAVGKWGFIALPLYAILVVGTTFCSLFSSVWLSYWTENKFKNRPPSFYMGLYSFFVFAAFIFMNGQFTILCAMGIMASKWLNLRAVKRILHTPMSYIDTTPLGRILNRFTKDTDSLDNELTESLRLMTSQFANIVGVCVMCIVYLPWFAIAIPFLLVIFVLIADHYQSSGREIKRLEAVQRSFVYNNLNEVLGGMDTIKAYRSQERFLAKSDFLINKMNEAGYLVVVLQRWVGIFLDMVAIAFALIITLLCVTRAFPISAASVGVLLTYVLQLPGLLNTILRAMTQTENDMNSAERLVTYATELPLEASYRKPEMTPPESWPSMGEIIFENVDFAYRPGLPIVLKNLNLNIKSGEKIGICGRTGAGKSTIMSALYRLNELTAGKILIDNVDISQLGLFDLRRKLAIIPQDPVLFRGTIRKNLDPFNERTDDELWDALVRGGAIAKDDLPEVKLQKPDENGTHGKMHKFHLDQAVEEEGSNFSLGERQLLALTRALVRQSKILILDEATSSVDYETDGKIQTRIVEEFGDCTILCIAHRLKTIVNYDRILVLEKGEVAEFDTPWTLFSQEDSIFRSMCSRSGIVENDFENRS
B6: YBL007C_1 (protein, UniProt P32790 1-1244, looked up)
Actin cytoskeleton-regulatory …: MTVFLGIYRAVYAYEPQTPEELAIQEDDLLYLLQKSDIDDWWTVKKRVIGSDSEEPVGLVPSTYIEEAPVLKKVRAIYDYEQVQNADEELTFHENDVFDVFDDKDADWLLVKSTVSNEFGFIPGNYVEPENGSTSKQEQAPAAAEAPAATPAAAPASAAVLPTNFLPPPQHNDRARMMQSKEDQAPDEDEEGPPPAMPARPTATTETTDATAAAVRSRTRLSYSDNDNDDEEDDYYYNSNSNNVGNHEYNTEYHSWNVTEIEGRKKKKAKLSIGNNKINFIPQKGTPHEWSIDKLVSYDNEKKHMFLEFVDPYRSLELHTGNTTTCEEIMNIIGEYKGASRDPGLREVEMASKSKKRGIVQYDFMAESQDELTIKSGDKVYILDDKKSKDWWMCQLVDSGKSGLVPAQFIEPVRDKKHTESTASGIIKSIKKNFTKSPSRSRSRSRSKSNANASWKDDELQNDVVGSAAGKRSRKSSLSSHKKNSSATKDFPNPKKSRLWVDRSGTFKVDAEFIGCAKGKIHLHKANGVKIAVAADKLSNEDLAYVEKITGFSLEKFKANDGSSSRGTDSRDSERERRRRLKEQEEKERDRRLKERELYELKKARELLDEERSRLQEKELPPIKPPRPTSTTSVPNTTSVPPAESSNNNNSSNKYDWFEFFLNCGVDVSNCQRYTINFDREQLTEDMMPDINNSMLRTLGLREGDIVRVMKHLDKKFGRENIASIPTNATGNMFSQPDGSLNVATSPETSLPQQLLPQTTSPAQTAPSTSAETDDAWTVKPASKSESNLLSKKSEFTGSMQDLLDLQPLEPKKAAASTPEPNLKDLEPVKTGGTTVPAAPVSSAPVSSAPAPLDPFKTGGNNILPLSTGFVMMPMITGGDMLPMQRTGGFVVPQTTFGMQSQVTGGILPVQKTGNGLIPISNTGGAMMPQTTFGAAATVLPLQKTGGGLIPIATTGGAQFPQTSFNVQGQQQLPTGSILPVQKTANGLISANTGVSMPTVQRTGGTMIPQTSFGVSQQLTGGAMMTQPQNTGSAMMPQTSFNAVPQITGGAMMPQTSFNALPQVTGGAMMPLQRTGGALNTFNTGGAMIPQTSFSSQAQNTGGFRPQSQFGLTLQKTGGIAPLNQNQFTGGAMNTLSTGGVLQQQQPQTMNTFNTGGVMQELQMMTTFNTGGAMQQPQMMNTFNTDGIMQQPQMMNTFNTGGAMQQPQQQALQNQPTGFGFGNGPQQSRQANIFNATASNPFGF
B7: YHR114W_1 (protein, UniProt P38822 1-633, looked up)
Protein BZZ1: MSADLSIGNEIKDSFKETHKWVQNNLKWLKDIEQFYRERAKLEKDYSERLSRLSAEYFNKKSSTSVPISVGDTPTTTPGSIEAAGVVAWNEILSQTDMISKDHDQLSTDFENHVANQLSGLFTKLDMTLSKINGFNNDMVNKKDNIYHELEKAKKDYDEACSTMEMARNRYTKASNDRNKKKLDEKEMEMNKCKNEYLIKINQANRTKDKYYFQDVPEVLDLLQDVNEAKTLFLNDLWLKAASVENDLGANVSKRLQAANSVVKQNKPSLNTAIFIKHNLKNWKEPQDFVYKPSPVWHDDEKFAVPSSLEVEDLRIKLAKAENDYNSLQDKTQNELSKLSTLNKIKHEMKTNEDNINATKFYDTLKEYLNVVSPFTSHETLKLQAEVQIESIQNNVPEEYDLSTDNIDLSKTKKKSGIFSKFKHNILNVDSKPSSGGSTGNGNGGPLHITSLFNTSRRTRLGSAPNNAGEDSDNNSIRTTSTNNTKKTTQNSSDDGKNKVLYAYVQKDDDEITITPGDKISLVARDTGSGWTKINNDTTGETGLVPTTYIRISSAATVKANDRGPAPEVPPPRRSTLPVRTMEAIYAYEAQGDDEISIDPGDIITVIRGDDGSGWTYGECDGLKGLFPTSYCK

System: PPIs identified as affected by the SH3 domain deletions
Experiment: Liquid DHFR-PCA low-throughput validation of PPIs affected by SH3 deletion (Fig. S1D-E)
Type: cell-based, Saccharomyces cerevisiae
Conditions: label = prey, liquid DHFR-PCA, prey _1 = lost, _2 = gained in screen
Protocol: Liquid DHFR-PCA low-throughput experiments were performed to validate the PPIs identified as affected by the SH3 domain deletions in the high-throughput solid DHFR-PCA screen (256 PPIs weaker or lost and 116 PPIs stronger or gained following domain deletions). Mating and the diploid selection were performed as described for the large-scale experiment, with the exception that the plates were in 384 formats. Following the second diploid selection, diploid cells were inoculated in a 96 v-shaped well plate using a robotically manipulated 96 pin tool in a synthetic complete medium with MSG at pH 6.0 with NAT and HPH. After 48 h of growth, optical density (OD) was read using a TECAN Infinite F200 Pro, and dilutions to 1 OD in sterile nanopure water were prepared. Cells were then diluted to 0.1 OD by combining 25 µl of cell suspension at OD = 1 and 225 µl of PCA selection media without agar in a 96-wells plate. Plates were incubated at 30 °C in a TECAN Infinite M Nano and OD was monitored each 15 min for 72 h.

Molecule	Ratio (Deletedscore / WTscore) (bait BBC1)	Ratio (Deletedscore / WTscore) (bait MYO3)	Ratio (Deletedscore / WTscore) (bait MYO5)	also measured
B1	0.6877	–	–	–
B2	0.507	0.7743	0.8345	Ratio (Deletedscore / WTscore) (bait BZZ1-1): 0.736; Ratio (Deletedscore / WTscore) (bait HOF1): 1.194; Ratio (Deletedscore / WTscore) (bait RVS167): 0.8585
B3	0.6664	–	–	Ratio (Deletedscore / WTscore) (bait BEM1-1): 0.1513
B4	0.6627	–	–	–
B5	0.5928	0.4945	0.6948	Ratio (Deletedscore / WTscore) (bait BEM1-2): 0.6055
B6	0.5353	0.6734	0.8649	Ratio (Deletedscore / WTscore) (bait LSB1): 0.9074; Ratio (Deletedscore / WTscore) (bait PIN3): 0.824
B7	0.6315	0.5608	0.7759	Ratio (Deletedscore / WTscore) (bait LSB3): 0.7048; Ratio (Deletedscore / WTscore) (bait RVS167): 0.6256

Reference: publication PMC7954794, “Protein context shapes the specificity of SH3 domain-mediated interactions in vivo” (Nature Communications, 2021)
